{
  "source": "patent US20260176653",
  "molecular_target": "T1, Bcl-TEV IRES iADAR (tandem-dimer MCP, BAD peptide fused to the N-terminus of ADAR2-DD(E488Q & F697Y), TEV cut site, Bcl-xL, TagBFP)",
  "T1 chain": "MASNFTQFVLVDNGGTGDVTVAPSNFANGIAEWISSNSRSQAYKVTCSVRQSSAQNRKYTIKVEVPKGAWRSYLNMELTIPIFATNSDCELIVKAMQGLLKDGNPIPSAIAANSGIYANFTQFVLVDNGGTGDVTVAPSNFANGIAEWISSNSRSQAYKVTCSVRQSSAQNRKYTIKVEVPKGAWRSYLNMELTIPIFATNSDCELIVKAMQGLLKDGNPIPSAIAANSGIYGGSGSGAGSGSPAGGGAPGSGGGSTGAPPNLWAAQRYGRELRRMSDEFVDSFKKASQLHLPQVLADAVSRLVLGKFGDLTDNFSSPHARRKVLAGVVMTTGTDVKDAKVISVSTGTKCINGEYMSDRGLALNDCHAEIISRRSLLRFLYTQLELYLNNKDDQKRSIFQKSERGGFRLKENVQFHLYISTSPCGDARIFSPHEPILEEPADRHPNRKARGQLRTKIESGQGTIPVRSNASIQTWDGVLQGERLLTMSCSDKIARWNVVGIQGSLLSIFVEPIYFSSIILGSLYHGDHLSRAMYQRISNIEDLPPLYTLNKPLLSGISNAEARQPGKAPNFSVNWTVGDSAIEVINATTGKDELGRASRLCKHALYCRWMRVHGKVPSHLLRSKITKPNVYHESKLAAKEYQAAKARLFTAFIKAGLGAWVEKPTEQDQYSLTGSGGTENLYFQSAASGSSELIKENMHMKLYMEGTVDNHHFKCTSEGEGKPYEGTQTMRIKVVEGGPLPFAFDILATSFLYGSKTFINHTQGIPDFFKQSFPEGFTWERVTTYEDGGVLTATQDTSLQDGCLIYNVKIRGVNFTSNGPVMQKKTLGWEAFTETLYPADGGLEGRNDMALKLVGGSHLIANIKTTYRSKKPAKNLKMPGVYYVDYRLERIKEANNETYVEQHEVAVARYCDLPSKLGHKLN",
  "data": [
    {"protein": "TEV Protease (protein) MGESLFKGPRDYNPISSTICHLTNESDGHTTSLYGIGFGPFIITNKHLFRRNNGTLLVQSLHGVFKVKNTTTLQQHLIDGRDMIIIRMPKDFPPFPQKLKFREPQREERICLVTTNFQTKSMSSMVSDTSCTFPSSDGIFWKHWIQTKDGQCGSPLVSTRDGFIVGIHSASNFTNTNNYFTSVPKNFMELLTNQEAQQWVSGWRLNADSVLWGGHKVFMVKPEEPFQPVKEATQL", "values": [
      {"measurement": "fold change of the mean RFU (mNeonGreen-to-mCherry), Bcl-TEV IRES iADAR co-transfected with TEV protease", "value": 17, "unit": "× for TEV protease"}
    ]}
  ]
}
